Assay: Identifying reaction product by HPLC (TSK gel Amide-80)
Format: biochemical
Conditions: 2 mM fructosyl valyl histidine, 0.003U oxidase, 37° C. for 2 hours
Experimental: Reaction solution was assayed by HPLC to identify reaction products. First, 50 μl of reaction solution (2 mM fructosyl valyl histidine, 5 mM phosphate buffer (pH 8.0), 0.003U of the inventive oxidase) was incubated at 37° C. for 2 hours, diluted (10×) and then assayed for the reaction products in a TSK gel Amide-80 column (available from Tosoh Co., Ltd.). As a control, the same procedure was repeated except for using a buffer instead of the enzyme.
Reaction solution was assayed by HPLC to identify reaction products. First, 50 μl of reaction solution (2 mM fructosyl valyl histidine, 5 mM phosphate buffer (pH 8.0), 0.003U of the inventive oxidase) was incubated at 37° C. for 2 hours, diluted (10×) and then assayed for the reaction products in a TSK gel Amide-80 column (available from Tosoh Co., Ltd.). Similarly, a control sample was obtained by using a buffer instead of the enzyme and assayed.

B1: Eupenicillium terrenum ATCC 18547: fructosyl peptide oxidase produced by Eupenicillium terrenum ATCC 18547 with less action on ε-fructosyl lysine; amino acid sequence SEQ ID NO: 3 (protein, listed as Eupenicillium terrenum)
chain: MAHSRASTKVVVVGGGGTIGSSTALHLIRSGYTPSNITVLDVYKTPSLQSAGHDLNKIMGIRLRNGPDLQLSLESLDMWQNDELFKPFFHQVGMIDCSSSKEGIENLRRKYQTLLDAGIGLEKTNVWLESEDEILAKAPNFTREQVKGWKGLFCTDGGWLAAAKAINAIGIFLQDKGVKFGFGGAGTFQQPLFAADGKTCIGLETTDGTKYFADKVVLAAGAWSPTLVDLEDQCVSKAWVFAHIQLTPKEADAYKNVPVVYDGEYGFFFEPNEYGVIKVCDEFPGFSRFKLHQPYGAASPKMISVPRSHAKHPTDTYPDASEVTIRKAIARFLPEFKDKELFNRTMCWCTDTADANLLICEHPKWKNFILATGDSGHSFKLLPNIGKHVVELLEGSLSQEMAGAWRWRPGGDALRSRRGAPAKDLAEMPGWKHDAHL
reaction product identified by HPLC: a peak was detected only for valyl histidine

Source: patent publication US7419813B2, “Fructosyl peptide oxidase” (Kikkoman Corporation, priority 2001, dated 2008)
